Assay results reported in paper PMC11793764, “A universal method for the purification of C2H2 zinc finger arrays”.

Molecular target: CCR5L (designed (synthetic))
Assay: MST; 100 uM ZnCl2; MST: 20 mM Tris-HCl pH 7.5, 200 mM NaCl, 0.01% Tween-20, 100 uM ZnCl2, 0.1 mM TCEP; TZAP arrays: 20 mM Tris-HCl pH 7.0, 50 mM NaCl, 0.1% Tween-20, 100 uM ZnCl2, 0.1 mM TCEP; temperature not stated
Conditions: protein: recombinant; tags: His-SUMO cleaved by Ulp1; Cy5-maleimide on terminal Cys; hairpin

Sequence of CCR5L (designed (synthetic)) (chain, as listed by the source): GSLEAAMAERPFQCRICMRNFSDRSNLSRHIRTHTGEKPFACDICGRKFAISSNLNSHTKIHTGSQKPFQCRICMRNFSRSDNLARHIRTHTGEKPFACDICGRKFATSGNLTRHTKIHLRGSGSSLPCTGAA

B1: ccr5l-wt (structured_DNA)
DNA: GGCTTCCGCTGTCATCCTCATCAGGTTTTCCTGATGAGGATGACAGCGGAAGCC
  Kd: 5.7 nM
